Patent US9458437B2, “Neuroprotective peptides that inhibit interaction between palmitoyl acyl transferase zinc-finger DHHC type containing 17 (zD17) and c-jun N-terminal kinase (JNK)” (The University of British Columbia, priority 2011, dated 2016)

Key:
JNK1 = molecular target: T1, JNK1 (Rattus norvegicus, UniProt P49185); assay: kinase assay (KA) on JNK1 immunoprecipitated from cell lysates; format: cell-based; conditions: for JNK1 activity normalized to 0 h: NMDA + NIMoE
T1 construct: JNK is immunoprecipitated from the cell lysate; endogenous in cells; host or cells: rat primary neuronal cultures; JNK1 immunoprecipitated from lysate
T1 sequence (P49185 whole entry): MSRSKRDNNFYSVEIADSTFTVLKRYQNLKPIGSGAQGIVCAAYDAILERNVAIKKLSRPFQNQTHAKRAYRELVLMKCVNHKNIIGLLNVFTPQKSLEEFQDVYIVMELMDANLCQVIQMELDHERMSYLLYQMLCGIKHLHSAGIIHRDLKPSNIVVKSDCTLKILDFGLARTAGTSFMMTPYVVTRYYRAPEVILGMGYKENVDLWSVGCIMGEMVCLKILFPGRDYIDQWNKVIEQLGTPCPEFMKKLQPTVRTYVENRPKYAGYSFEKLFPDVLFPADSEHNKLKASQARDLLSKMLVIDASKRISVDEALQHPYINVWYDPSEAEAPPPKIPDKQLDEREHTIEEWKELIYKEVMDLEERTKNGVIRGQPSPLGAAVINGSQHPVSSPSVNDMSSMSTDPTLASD
Procedure: JNK activity was measured with an in vitro kinase assay as described elsewhere (see, for e.g.: Khatlani et al., 2007). Briefly, cell lysates were prepared and JNK was immunoprecipitated with specific antibodies. The immnoprecipitates were then resuspended in 1× kinase buffer (Cell Signaling Technology™) supplemented with 200 μM ATP and 250 μg/ml GST-c-jun (1-89), and incubated at 30° C. for 30 min. Reactions were terminated by the addition of SDS-PAGE sample buffer. Phosphorylated c-jun was resolved by SDS-PAGE and detected with anti-p-c-jun.

zD17-JNK2 interaction = molecular target: T2, zD17-JNK2 interaction (Rattus norvegicus, UniProt P49186); assay: co-immunoprecipitation of zD17 with JNK2 in neuronal cultures; format: cell-based; conditions: NMDA
T2 construct: endogenous in cells; host or cells: primary cortical neurons of embryonic Wistar rat
Procedure: All animal experiments were approved by the Animal Care Committee of the University of British Columbia. Primary cortical cultures were prepared from Wistar rat (UBC Animal Care Centre, Vancouver, BC, Canada) brains at embryonic days 18-19. Cultures were maintained in Neurobasal medium supplemented with B27 and 0.5 mM glutamax (Invitrogen™) as described previously (Yang et al., 2009).
(§1) The protocols for protein extraction have been described previously (Yang et al., 2009). For co-immunoprecipitation, cultured cells were washed with ice-cold PBS followed by incubation with 0.5 ml Gentle Lysis Buffer (GLB) containing 25 mM Tris-HCl (pH 7.4), 2 mM EDTA, 1 mM EGTA, 10 mM NaCl, 0.5% Triton X-100 and 10% Glycerol supplemented with the Complete Protease Inhibitor Tablets (Roche Applied Science™, Indianapolis, Ind., USA) and 1 mM PMSF. Total protein concentration was determined with the BioRad™ Protein Assay kit. Lysates were first precleaned by incubating with Protein A-Sepharose beads (Roche Applied Science™) for 1 h at 4° C., followed by incubation with indicated antibodies (>16 h at 4° C.) and protein A Sepharose bead (2 h at 4° C.). Lysates of rat brain tissues were precleaned with IgG and protein A-beads. Immunoprecipitates were washed three times with GLB buffer; boiled in 2× loading buffer with 1 mM dithiothreitol (DTT) for 3 min; and analyzed with SDS-PAGE as described previously (Yang et al., 2009). The relative intensities of the bands on immunoblots were analyzed and quantified using Image J™ (NIH).

zD17-JNK3 interaction = zD17-JNK3 interaction (Rattus norvegicus, UniProt P49187); assay: zD17-JNK3 interaction in the injured hemisphere after MCAo; format: in vivo, Sprague-Dawley rat; parameters: Lysates of rat brain tissues were precleaned with IgG and protein A-beads; from tissue; host or cells: brain (injured left hemisphere) of adult male Sprague-Dawley rats; conditions: single intravenous injection 30 min before MCAo
zD17-JNK3 interaction, sequence (P49187 whole entry): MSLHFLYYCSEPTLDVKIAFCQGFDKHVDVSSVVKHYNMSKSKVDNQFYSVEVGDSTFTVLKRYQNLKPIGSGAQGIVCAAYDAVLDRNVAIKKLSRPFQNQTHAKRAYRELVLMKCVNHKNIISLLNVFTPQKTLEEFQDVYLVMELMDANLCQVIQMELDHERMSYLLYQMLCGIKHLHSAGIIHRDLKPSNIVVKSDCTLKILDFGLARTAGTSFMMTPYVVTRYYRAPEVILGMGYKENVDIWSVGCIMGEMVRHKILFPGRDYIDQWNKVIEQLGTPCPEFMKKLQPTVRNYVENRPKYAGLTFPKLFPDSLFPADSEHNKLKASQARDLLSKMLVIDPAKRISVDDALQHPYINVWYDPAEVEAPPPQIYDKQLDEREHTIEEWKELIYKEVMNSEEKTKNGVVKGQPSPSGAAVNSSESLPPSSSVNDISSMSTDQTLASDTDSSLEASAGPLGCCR
Procedure: as §1, with “Lysates were first precleaned by incubating with Protein A-Sepharose beads (Roche Applied Science™) for 1 h at 4° C., followed by incubation with indicated antibodies (>16 h at 4° C.) and protein A Sepharose bead (2 h at 4° C.). Lysates of rat brain tissues were precleaned with IgG and protein A-beads.” left out, “(NIH). […]” for “(NIH).”
Peptides were synthesized by PepMetric Technologies™ or GL Biochem™ (Shanghai, China). […] Injections of NIMoEscr and NIMoEsh were made, brain damage was assessed and functional evaluations performed in a double-blind manner To examine the delivery of the peptide into the brain, 5 mg/kg FITC-labelled NIMoE or only saline was intravenously injected 1 h before perfusion. […]

[1] = tested on: middle cerebral artery occlusion (MCAo); assay: transient MCAo in SD rats, neurological scores; format: in vivo, Sprague-Dawley rat
Procedure: Adult male Sprague-Dawley (SD) rats weighing 250-290 g were employed for transient middle cerebral artery occlusion. Rats were anaesthetized with 5% isofluorane and maintained with 2% isofluorane in 70% N2O and 30% O2 using a face mask. 5 mg/kg ketoprofen was given pre-surgery to block pain. Rectal temperature was maintained at 37° C. during surgery with a homeothermic blanket system (Harvard Apparatus™, Holliston, Mass.). The scalp was incised at the midline and the skull was exposed. The skull was thinned with a dental drill at a region ipsilateral to the expected ischemia zone (2 mm posterior and 5 mm lateral from the bregma). […]
Peptides were synthesized by PepMetric Technologies™ or GL Biochem™ (Shanghai, China). […] Injections of NIMoEscr and NIMoEsh were made, brain damage was assessed and functional evaluations performed in a double-blind manner To examine the delivery of the peptide into the brain, 5 mg/kg FITC-labelled NIMoE or only saline was intravenously injected 1 h before perfusion. […] After rapid freezing in Tissue-Tek™ embedding medium (Sakura™, Torrance, Calif.) on dry ice, 20 μm sections were cut on a cryostat (Leica™ CM3050, Ontario, Canada) and examined for FITC fluorescence by a laser microscopy (Zeiss™, Axiovert 200). […]

Sequence	JNK1 activity normalized to 0 h (JNK1; 0.5 h)	JNK1 activity normalized to 0 h (JNK1; 1 h)	normal activation of JNK1 (JNK1; NMDA, neuronal cultures)	enhancement of the JNK2-zD17 interaction (zD17-JNK2 interaction)	enhancement of the zD17-JNK3 interaction after MCAo (zD17-JNK3 interaction)	behavioural deficits evaluated with neurological scores ([1]; NIMoEsh administration, MCAo rats)	duration of improvement of behavioural performance ([1]; injected 2 h post-surgery, double-blinded)
MTPLMWAAYRTHSVDPTRLL (listed as Homo sapiens) [NIMoE, peptide comprising motif-E of zD17, fused to the cell-membrane transduction domain of HIV-1 Tat for cell experiments]	104.3±2.6%	168.5±3.3%	did not inhibit	eliminated the enhancement			
WAAYRTHSVD (listed as Homo sapiens) [NIMoEsh, shorter 10mer of NIMoE, primarily the loop region of motif-E (zD17 196-205)]					effectively attenuated	substantially reduced	persisted over 14 days
